Source: the supplement of paper PMC10065799, “High-throughput profiling of sequence recognition by tyrosine kinases and SH2 domains using bacterial peptide display” (eLife, 2023)

Key:
[1] = target: EPHB2 (UniProt P29323); test: phosphorylation enrichment, bacterial display (enrichment ratio); higher = better substrate or ligand; peptides without Tyr show the background
[2] = target: FGFR1 (UniProt P11362); test: as above
[3] = test system: AncSZ; test: as above
[4] = target: MERTK (UniProt Q12866); test: as above
[5] = target: Hck (UniProt P08631); test: as above
[6] = test system: Fer (mouse); test: as above
[7] = test system: c-Src; test: as above
[8] = target: FGFR3 (UniProt P22607); test: as above
[9] = target: EPHB1 (UniProt P54762); test: as above
[10] = test system: c-Abl (mouse); test: as above
[11] = target: Fyn (UniProt P06241); test: as above
[12] = target: Fes (UniProt P07332); test: as above
[13] = target: Jak2 (UniProt O60674); test: as above
[14] = target: Grb2 SH2 (UniProt P62993); test: SH2 binding enrichment of the phosphorylated peptide, bacterial display (enrichment ratio); higher = better substrate or ligand; peptides without Tyr show the background
[15] = target: SHP2-C SH2; test: as above
[16] = target: c-Src SH2; test: as above
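Throughout, for SH2 binding enrichment of the phosphorylated peptide, bacterial display: peptide library displayed on the E. coli surface as eCPX fusions, selected cells deep-sequenced, score is each peptide's frequency after selection divided by its frequency in the input.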
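Throughout, for phosphorylation enrichment, bacterial display: 11-residue human phosphosite peptides and single-mutation variants displayed on the E. coli surface, counted by deep sequencing, each peptide's frequency after selection divided by its frequency in the unselected input library; frequency after pTyr selection over input frequency; kinase dosed for 20-30% of maximal phosphorylation in three min.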

Chain of Grb2 SH2 (P62993 whole entry, looked up): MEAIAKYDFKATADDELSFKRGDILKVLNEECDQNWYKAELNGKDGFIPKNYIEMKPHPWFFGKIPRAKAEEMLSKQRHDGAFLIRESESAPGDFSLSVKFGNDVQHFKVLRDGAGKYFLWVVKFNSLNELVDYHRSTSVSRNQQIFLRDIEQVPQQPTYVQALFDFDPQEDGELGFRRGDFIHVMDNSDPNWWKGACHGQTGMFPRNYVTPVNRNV
Chain of MERTK (Q12866 whole entry, looked up): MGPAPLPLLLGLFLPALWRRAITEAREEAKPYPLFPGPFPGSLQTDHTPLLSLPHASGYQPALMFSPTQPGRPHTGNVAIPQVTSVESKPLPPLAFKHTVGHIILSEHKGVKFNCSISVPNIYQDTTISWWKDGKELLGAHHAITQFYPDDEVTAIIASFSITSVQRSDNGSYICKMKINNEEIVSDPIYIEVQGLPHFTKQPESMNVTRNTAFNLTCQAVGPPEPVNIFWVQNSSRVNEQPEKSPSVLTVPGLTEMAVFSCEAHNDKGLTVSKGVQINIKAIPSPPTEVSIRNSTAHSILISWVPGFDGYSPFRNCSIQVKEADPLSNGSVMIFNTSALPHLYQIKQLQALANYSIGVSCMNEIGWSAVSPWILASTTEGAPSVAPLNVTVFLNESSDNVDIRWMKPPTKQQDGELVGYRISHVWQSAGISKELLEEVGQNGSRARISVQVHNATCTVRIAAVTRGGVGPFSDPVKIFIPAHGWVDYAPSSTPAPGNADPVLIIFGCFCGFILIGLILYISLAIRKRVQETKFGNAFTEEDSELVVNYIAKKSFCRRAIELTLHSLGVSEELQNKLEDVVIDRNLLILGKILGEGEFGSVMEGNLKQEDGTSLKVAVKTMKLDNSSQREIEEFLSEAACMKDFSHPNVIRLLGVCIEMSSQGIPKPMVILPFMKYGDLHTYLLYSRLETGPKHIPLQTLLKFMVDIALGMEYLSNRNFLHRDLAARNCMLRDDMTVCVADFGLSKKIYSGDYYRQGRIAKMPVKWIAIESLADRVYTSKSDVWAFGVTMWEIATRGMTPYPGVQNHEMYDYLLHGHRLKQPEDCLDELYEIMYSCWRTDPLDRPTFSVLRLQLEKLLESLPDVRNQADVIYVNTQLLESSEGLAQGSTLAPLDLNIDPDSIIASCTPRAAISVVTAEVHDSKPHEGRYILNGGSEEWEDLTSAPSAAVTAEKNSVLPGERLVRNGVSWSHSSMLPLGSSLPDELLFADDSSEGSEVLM
Chain of FGFR1 (P11362 whole entry, looked up): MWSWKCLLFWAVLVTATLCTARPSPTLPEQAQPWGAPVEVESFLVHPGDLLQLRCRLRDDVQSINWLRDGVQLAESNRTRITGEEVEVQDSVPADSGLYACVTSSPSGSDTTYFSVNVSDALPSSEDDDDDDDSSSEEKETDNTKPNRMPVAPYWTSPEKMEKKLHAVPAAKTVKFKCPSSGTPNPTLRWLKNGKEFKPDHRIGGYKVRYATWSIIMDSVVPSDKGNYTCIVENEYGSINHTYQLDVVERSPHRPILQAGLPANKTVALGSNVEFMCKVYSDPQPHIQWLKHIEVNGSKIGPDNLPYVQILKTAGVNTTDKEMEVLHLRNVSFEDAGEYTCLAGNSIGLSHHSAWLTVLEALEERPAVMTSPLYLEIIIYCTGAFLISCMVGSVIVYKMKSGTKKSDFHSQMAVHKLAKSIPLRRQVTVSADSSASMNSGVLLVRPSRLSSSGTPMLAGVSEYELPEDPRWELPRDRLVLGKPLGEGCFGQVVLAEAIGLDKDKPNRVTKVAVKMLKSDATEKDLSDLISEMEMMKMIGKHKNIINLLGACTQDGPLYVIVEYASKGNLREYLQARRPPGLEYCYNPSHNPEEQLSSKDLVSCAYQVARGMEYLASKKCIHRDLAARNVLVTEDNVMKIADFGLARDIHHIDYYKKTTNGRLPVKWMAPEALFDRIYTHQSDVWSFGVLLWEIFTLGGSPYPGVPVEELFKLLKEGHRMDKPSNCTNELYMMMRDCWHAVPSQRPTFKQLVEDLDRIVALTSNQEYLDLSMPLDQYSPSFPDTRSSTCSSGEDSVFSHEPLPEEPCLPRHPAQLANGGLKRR
Chain of EPHB2 (P29323 whole entry, looked up): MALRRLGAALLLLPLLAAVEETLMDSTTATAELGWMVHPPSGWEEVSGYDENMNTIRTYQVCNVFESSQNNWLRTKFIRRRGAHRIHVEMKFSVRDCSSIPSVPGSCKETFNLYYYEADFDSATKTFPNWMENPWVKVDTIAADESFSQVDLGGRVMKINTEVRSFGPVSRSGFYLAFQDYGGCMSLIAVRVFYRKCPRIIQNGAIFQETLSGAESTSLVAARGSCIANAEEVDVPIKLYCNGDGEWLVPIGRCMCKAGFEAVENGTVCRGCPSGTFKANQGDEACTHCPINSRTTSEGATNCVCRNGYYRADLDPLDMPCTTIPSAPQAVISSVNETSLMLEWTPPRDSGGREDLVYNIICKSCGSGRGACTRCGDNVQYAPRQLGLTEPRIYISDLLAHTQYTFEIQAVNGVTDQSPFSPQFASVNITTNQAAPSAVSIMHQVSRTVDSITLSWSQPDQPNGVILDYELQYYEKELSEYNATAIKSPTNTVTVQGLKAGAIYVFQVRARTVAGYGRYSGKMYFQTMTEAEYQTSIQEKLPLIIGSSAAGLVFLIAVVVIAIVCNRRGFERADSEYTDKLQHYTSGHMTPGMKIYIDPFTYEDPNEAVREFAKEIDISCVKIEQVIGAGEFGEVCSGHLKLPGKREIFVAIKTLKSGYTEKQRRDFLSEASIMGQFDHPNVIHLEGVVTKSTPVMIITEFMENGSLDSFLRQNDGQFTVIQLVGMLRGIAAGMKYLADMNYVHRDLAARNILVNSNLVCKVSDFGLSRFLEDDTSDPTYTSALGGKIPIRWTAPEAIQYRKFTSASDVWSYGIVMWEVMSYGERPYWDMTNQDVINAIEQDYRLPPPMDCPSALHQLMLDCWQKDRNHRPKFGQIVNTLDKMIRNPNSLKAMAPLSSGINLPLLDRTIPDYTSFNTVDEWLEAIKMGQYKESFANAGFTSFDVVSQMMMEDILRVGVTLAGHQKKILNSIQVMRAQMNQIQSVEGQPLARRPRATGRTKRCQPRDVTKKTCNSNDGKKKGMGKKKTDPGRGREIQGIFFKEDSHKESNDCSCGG
Chain of Hck (P08631 whole entry, looked up): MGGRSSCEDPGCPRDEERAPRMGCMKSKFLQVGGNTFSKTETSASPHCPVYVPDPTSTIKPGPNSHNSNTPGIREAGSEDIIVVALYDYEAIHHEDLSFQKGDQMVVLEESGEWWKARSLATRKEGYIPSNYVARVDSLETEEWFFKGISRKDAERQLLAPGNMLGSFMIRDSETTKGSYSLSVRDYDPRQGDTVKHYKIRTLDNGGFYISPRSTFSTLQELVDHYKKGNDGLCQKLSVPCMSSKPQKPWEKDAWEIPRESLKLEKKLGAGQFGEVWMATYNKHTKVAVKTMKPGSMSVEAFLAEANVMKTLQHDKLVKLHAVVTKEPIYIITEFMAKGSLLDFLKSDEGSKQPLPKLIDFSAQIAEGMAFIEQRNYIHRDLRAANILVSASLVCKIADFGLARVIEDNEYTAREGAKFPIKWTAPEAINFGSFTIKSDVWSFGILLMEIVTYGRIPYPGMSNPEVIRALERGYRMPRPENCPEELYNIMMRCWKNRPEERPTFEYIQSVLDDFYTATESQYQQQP
Chain of Fes (P07332 whole entry, looked up): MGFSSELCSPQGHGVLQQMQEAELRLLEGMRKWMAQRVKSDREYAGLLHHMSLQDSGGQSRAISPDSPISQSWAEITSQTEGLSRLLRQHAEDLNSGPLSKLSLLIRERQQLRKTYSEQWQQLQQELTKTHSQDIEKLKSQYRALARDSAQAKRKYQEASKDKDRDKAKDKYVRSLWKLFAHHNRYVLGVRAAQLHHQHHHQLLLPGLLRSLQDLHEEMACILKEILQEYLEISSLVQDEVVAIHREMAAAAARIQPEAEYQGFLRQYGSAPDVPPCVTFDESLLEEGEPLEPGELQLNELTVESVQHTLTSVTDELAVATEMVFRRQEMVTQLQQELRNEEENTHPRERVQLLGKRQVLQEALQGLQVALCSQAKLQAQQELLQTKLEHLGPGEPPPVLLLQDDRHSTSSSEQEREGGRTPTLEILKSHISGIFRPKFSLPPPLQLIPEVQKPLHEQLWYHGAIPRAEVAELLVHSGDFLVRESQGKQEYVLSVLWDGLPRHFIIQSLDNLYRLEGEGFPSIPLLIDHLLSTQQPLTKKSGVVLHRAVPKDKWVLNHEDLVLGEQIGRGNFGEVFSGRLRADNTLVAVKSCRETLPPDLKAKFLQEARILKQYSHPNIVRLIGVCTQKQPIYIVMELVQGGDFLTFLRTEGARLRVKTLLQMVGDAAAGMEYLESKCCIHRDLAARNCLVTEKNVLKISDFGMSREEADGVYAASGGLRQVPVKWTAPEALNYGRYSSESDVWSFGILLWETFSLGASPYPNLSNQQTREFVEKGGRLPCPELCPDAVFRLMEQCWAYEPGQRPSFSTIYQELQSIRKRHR
Chain of Fyn (P06241 whole entry, looked up): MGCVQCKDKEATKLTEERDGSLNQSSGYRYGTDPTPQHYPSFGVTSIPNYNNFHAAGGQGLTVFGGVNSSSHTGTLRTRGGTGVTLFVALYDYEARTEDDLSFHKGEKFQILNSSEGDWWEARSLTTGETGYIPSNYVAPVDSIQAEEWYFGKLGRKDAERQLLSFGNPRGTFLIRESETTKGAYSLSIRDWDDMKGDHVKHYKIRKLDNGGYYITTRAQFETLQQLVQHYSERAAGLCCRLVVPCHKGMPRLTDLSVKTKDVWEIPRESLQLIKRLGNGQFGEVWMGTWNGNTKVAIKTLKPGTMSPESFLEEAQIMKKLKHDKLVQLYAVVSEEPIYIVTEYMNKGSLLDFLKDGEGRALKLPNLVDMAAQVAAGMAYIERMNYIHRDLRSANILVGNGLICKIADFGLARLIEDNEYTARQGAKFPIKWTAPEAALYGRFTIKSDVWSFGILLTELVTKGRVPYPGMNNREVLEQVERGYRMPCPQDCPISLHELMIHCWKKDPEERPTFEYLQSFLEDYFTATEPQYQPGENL

| Sequence | phosphorylation enrichment [1] | phosphorylation enrichment [2] | phosphorylation enrichment [3] | phosphorylation enrichment [4] | phosphorylation enrichment [5] | phosphorylation enrichment [6] | phosphorylation enrichment [7] | phosphorylation enrichment [8] | phosphorylation enrichment [9] | phosphorylation enrichment [10] | phosphorylation enrichment [11] | phosphorylation enrichment [12] | phosphorylation enrichment [13] | SH2 binding enrichment [14] | SH2 binding enrichment [15] | SH2 binding enrichment [16] |
| --- | --- | --- | --- | --- | --- | --- | --- | --- | --- | --- | --- | --- | --- | --- | --- | --- |
| DFKIIYIAPMR [SNRNP200_Y540] | 0.486 | 0.449 | 1.21 | 0.437 | 0.556 | 0.447 | 0.572 | 0.616 | 0.586 | 4.59 | 0.522 | 1.22 | 1.18 | 1.46 | 1.32 | 0.759 |
| CPEARYNRSPI [PTAR1_Y42] | 0.458 | 0.419 | 0.699 | 0.433 | 0.492 | 0.435 | 0.399 | 0.617 | 0.485 | 0.55 | 0.441 | 0.859 | 0.641 | 0.618 | 0.483 | 0.522 |
| ASTDYNKRGDF [PDHA1_Y243_Y243N] | 0.474 | 0.421 | 0.502 | 0.405 | 0.332 | 0.378 | 0.47 | 0.402 | 0.348 | 0.469 | 0.456 | 0.599 | 0.468 | 0.954 | 0.512 | 0.446 |
| LGKLTYPVGFW [NTHL1_Y177_I176T] | 1.65 | 1.31 | 2.42 | 0.889 | 1.23 | 1.32 | 1.35 | 1.48 | 1.12 | 1.32 | 1.14 | 2.06 | 2.04 | 0.904 | 1.02 | 0.478 |
| TMEDSYRKQVV [KRAS_Y40_I36M] | 0.367 | 0.366 | 0.69 | 0.411 | 0.425 | 0.403 | 0.38 | 0.595 | 0.556 | 0.594 | 0.273 | 0.774 | 0.663 | 0.728 | 0.48 | 0.356 |
| AQMAMYFWEMG [TRPM4_Y577] | 0.914 | 3.25 | 1.38 | 2.67 | 1.36 | 0.682 | 2.62 | 3.09 | 0.995 | 1.11 | 1.1 | 1.45 | 1.37 | 1.49 | 1.43 | 0.908 |
| RIPFRYPKEFQ [IDS_Y234_H229R] | 0.646 | 0.78 | 0.946 | 0.637 | 1.07 | 0.627 | 1.1 | 1.07 | 0.571 | 0.998 | 0.56 | 1.14 | 1.48 | 0.447 | 0.531 | 0.414 |
| HNLDFYKETTN [FGFR3_Y648_K650E_YF] | 0.496 | 0.645 | 1.23 | 0.662 | 0.53 | 0.656 | 1.14 | 0.915 | 0.891 | 1.14 | 0.731 | 1.5 | 1.48 | 0.841 | 1.39 | 0.995 |
| CNNFICGGCRG [SPINT2_Y163_Y163C] | 0.515 | 0.5 | 0.963 | 0.488 | 0.504 | 0.443 | 0.415 | 0.644 | 0.466 | 0.697 | 0.519 | 0.902 | 0.87 | 0.968 | 0.757 | 0.6 |
| SNNYIYKTLGV [FAM83B_Y639] | 0.328 | 0.484 | 0.523 | 0.357 | 0.549 | 0.354 | 0.476 | 0.546 | 0.48 | 0.494 | 0.467 | 0.58 | 0.46 | 1.01 | 0.968 | 0.393 |
| MFQVQYNSSVD [LRFN1_Y458_YF] | 0.432 | 0.425 | 0.859 | 0.398 | 0.436 | 0.514 | 0.373 | 0.581 | 0.486 | 0.566 | 0.394 | 0.86 | 0.771 | 0.776 | 0.548 | 0.515 |
| YASALYRQRRS [FGF11_Y162] | 0.62 | 0.507 | 0.613 | 0.535 | 0.548 | 0.431 | 0.659 | 0.58 | 0.433 | 0.703 | 0.687 | 0.632 | 0.513 | 0.649 | 0.34 | 0.419 |
| VLDCHYPEDEV [C1QBP_Y188] | 0.725 | 0.596 | 1.22 | 0.556 | 0.629 | 0.632 | 0.571 | 0.88 | 0.589 | 0.919 | 0.464 | 1.27 | 1.3 | 1.01 | 0.929 | 0.468 |
| YSDPSYVKQME [CDC5L_Y464] | 0.57 | 0.985 | 1.1 | 0.578 | 0.593 | 0.409 | 0.473 | 0.716 | 0.392 | 0.537 | 0.434 | 0.817 | 0.557 | 0.8 | 0.608 | 1.05 |
| QWPGPYDRPGA [HNRNPH2_Y210_R206W] | 0.513 | 0.602 | 0.646 | 0.541 | 0.73 | 0.858 | 0.54 | 0.798 | 0.416 | 0.681 | 0.636 | 0.928 | 0.719 | 0.885 | 0.789 | 1.33 |
| ENPAKYDDIKK [GAPDH_Y255_K251N] | 0.582 | 0.519 | 0.915 | 0.437 | 0.412 | 0.453 | 0.485 | 0.69 | 0.608 | 0.579 | 0.506 | 1.04 | 0.829 | 0.702 | 0.888 | 1.39 |
| HNVAIYEGFAL [ACTC1_Y168_P166A_YF] | 11.2 | 0.56 | 1.28 | 8.57 | 9.95 | 17 | 9.03 | 0.781 | 11.1 | 9.06 | 13.3 | 1.3 | 0.972 | 0.877 | 1 | 0.509 |

| Sequence | phosphorylation enrichment [1] | phosphorylation enrichment [2] | phosphorylation enrichment [3] | phosphorylation enrichment [4] | phosphorylation enrichment [5] | phosphorylation enrichment [6] | phosphorylation enrichment [7] | phosphorylation enrichment [8] | phosphorylation enrichment [9] | phosphorylation enrichment [10] | phosphorylation enrichment [11] | phosphorylation enrichment [12] | phosphorylation enrichment [13] | SH2 binding enrichment [14] | SH2 binding enrichment [15] | SH2 binding enrichment [16] |
| --- | --- | --- | --- | --- | --- | --- | --- | --- | --- | --- | --- | --- | --- | --- | --- | --- |
| NAGDYYDLYGG [PTPN11_Y63_T59A] | 15.9 | 19.3 | 5.5 | 3.96 | 6.95 | 2.53 | 6.14 | 18.9 | 16.3 | 1.13 | 7.13 | 1.55 | 4.53 | 0.89 | 0.595 | 0.633 |
| VNKIFHPDFIV [LIG3_Y768_Y768H_YF] | 0.454 | 0.419 | 0.793 | 0.432 | 0.39 | 0.397 | 0.497 | 0.547 | 0.487 | 0.6 | 0.447 | 0.871 | 0.695 | 0.873 | 0.744 | 0.462 |
| PGVNFYFQVSA | 1.24 | 0.557 | 1.41 | 0.445 | 0.526 | 0.724 | 0.523 | 1 | 1.27 | 1.29 | 0.414 | 1.93 | 1.61 | 0.682 | 0.524 | 0.446 |
| EFKKHYGFSLF [ANXA3_Y295_YF] | 0.509 | 0.461 | 0.949 | 0.416 | 0.507 | 0.561 | 0.46 | 0.721 | 0.574 | 0.642 | 0.413 | 1.01 | 0.751 | 0.815 | 0.749 | 0.622 |
| LNPLFYSLRNK [OR5R1_Y290_I289F] | 0.537 | 0.481 | 0.552 | 0.395 | 0.475 | 0.75 | 0.348 | 0.737 | 0.396 | 0.363 | 0.511 | 0.773 | 0.468 | 1.5 | 2.19 | 0.74 |
| KSSDVYVSYDC [SORL1_Y136_Y141C] | 0.993 | 1.52 | 1.22 | 0.611 | 1.87 | 0.663 | 3.82 | 1.35 | 0.866 | 0.772 | 4.79 | 1.13 | 0.934 | 0.959 | 0.583 | 0.766 |
| SGVSFYINLCQ [IGF2R_Y2025_N2020S_YF] | 0.695 | 0.787 | 1.5 | 0.686 | 0.481 | 0.529 | 0.522 | 1.19 | 0.806 | 1.04 | 0.361 | 1.46 | 1.61 | 2.21 | 1.32 | 1.48 |
| MWGSDYVQLSR [MAP3K4_Y582] | 6.29 | 7.1 | 1.67 | 0.561 | 1.12 | 0.383 | 1.08 | 4.02 | 9.41 | 0.53 | 0.685 | 0.765 | 5.71 | 0.646 | 0.521 | 0.583 |
| AFEQQYSPIPK [NOX1_Y373_R378K] | 0.411 | 0.744 | 0.772 | 0.874 | 3.14 | 0.435 | 0.802 | 0.575 | 0.766 | 0.612 | 0.514 | 0.741 | 0.534 | 0.856 | 0.569 | 0.74 |
| PPEFSYGLQTQ [SRA1_Y35_Q32E] | 0.802 | 0.568 | 0.724 | 0.428 | 0.416 | 0.453 | 0.486 | 0.772 | 0.565 | 0.661 | 0.446 | 1.09 | 0.997 | 1.06 | 0.601 | 0.601 |
| GTHCHYKAPTV [FZD9_Y569] | 0.39 | 0.493 | 0.648 | 0.442 | 0.429 | 0.505 | 0.485 | 0.51 | 0.421 | 3.71 | 0.442 | 0.79 | 0.667 | 1.25 | 0.913 | 1.3 |
| IGKAGYTDKVV [ENO1_Y236] | 0.395 | 0.456 | 0.531 | 0.305 | 0.388 | 0.365 | 0.335 | 0.508 | 0.398 | 0.481 | 0.359 | 0.642 | 0.632 | 0.757 | 0.606 | 0.371 |
| GGMTEYELVVV [KRAS_Y4_K5E] | 1.15 | 2.95 | 1.6 | 0.456 | 0.585 | 7.66 | 0.651 | 1.62 | 1.39 | 0.589 | 0.664 | 1.04 | 1 | 0.792 | 0.528 | 0.525 |
| SEPDLYYDPRG [PKP1_Y160_C161Y] | 13.6 | 10.8 | 2.91 | 7.05 | 8.75 | 1.65 | 4.93 | 8.64 | 14.3 | 3.09 | 5.41 | 1.16 | 3.35 | 0.864 | 0.679 | 0.524 |
| KQVEQYMSFHK [HCN1_Y417] | 0.555 | 0.49 | 0.833 | 0.384 | 3.62 | 0.413 | 1.45 | 0.54 | 0.528 | 0.691 | 1.49 | 0.754 | 0.687 | 0.782 | 0.583 | 0.524 |
| FSKDIYKRVTG [PANK2_Y405_N404I_YF] | 0.382 | 0.431 | 0.516 | 0.334 | 0.423 | 0.355 | 0.398 | 0.413 | 0.218 | 0.529 | 0.444 | 0.58 | 0.407 | 0.763 | 0.598 | 0.41 |
